The values below come from paper doi:10.1101/2025.10.30.685657.

Where two headings read alike, the source gives them in different places.

Assay in all cases: live-cell long-exposure single-molecule localization microscopy
In test [1] the target is T3SS injectisome of Yersinia enterocolitica (Yersinia enterocolitica (endogenous)) (UniProt Q01245).
Test [2] shares this target. The source holds these as a separate data set.
The target is the same in test [3]. This is another data set of the same source.

In test [1], “Halo-tagged SctL (from UniProt Q01253 1-223) (natural protein)” came in with a bound time constant tau (inverse of koff) of 3.4 s; a short bound time constant tau (short component of the bi-exponential fit) of 3.1 s; a weighted average bound time constant (short- and long-lived events) of 4.4 s. Besides, the bound time constant tau (inverse of koff) in test [2] is 3.9 s.
Take “Halo-tagged SctQ (from UniProt Q79NI3 1-307) (natural protein)”: in test [1], the bound time constant tau (inverse of koff) amounted to 2.5 s, the long bound time constant tau (long component of the bi-exponential fit) amounted to 23 s and the short bound time constant tau (short component of the bi-exponential fit) came out at 4.5 s. In test [3], the short bound time constant tau (short component of the bi-exponential fit) was found to be 2.1 s; the weighted average bound time constant (short- and long-lived events) worked out at 2.7 s. In test [2], this substance showed a bound time constant tau (inverse of koff) of 4.1 s.
